{"source": "patent US20250186597A1", "about": "(BRIGHT PEAK THERAPEUTICS, published 2025)", "binders": {"B1": {"name": "IL-18 polypeptide C178 (E6K, V11I, C38A, K53A, T63A, C76A, Q103R, C127A) (ligand)", "chain": "YFGKLKSKLSIIRNLNDQVLFIDQGNRPLFEDMTDSDARDNAPRTIFIISMYADSQPRGMAVAISVKCEKISTLSAENKIISFKEMNPPDNIKDTKSDIIFFRRSVPGHDNKMQFESSSYEGYFLAAEKERDLFKLILKKEDELGDRSIMFTVQNED"}, "B2": {"name": "IL-18 polypeptide C183 (SEQ ID NO: 69; E6K, V11I, C38A, M51G, K53A, T63A, C76A, C127A) (ligand)", "chain": "B1 chain with M51G, R103Q"}, "B3": {"name": "IL-18 polypeptide C181 (E6K, V11I, C38A, K53A, T63A, C76A, C127A, V153E) (ligand)", "chain": "B1 chain with R103Q, V153E"}, "B4": {"name": "IL-18 polypeptide C179 (E6K, K8E, V11I, C38A, K53A, T63A, C76A, Q103R, C127A) (ligand)", "chain": "B1 chain with K8E"}, "B5": {"name": "IL-18 polypeptide C142 (Y1M, E6K, V11I, C38A, K53A, T63A, C76A, C127A) (ligand)", "chain": "B1 chain with Y1M, R103Q"}, "B6": {"name": "IL-18 polypeptide C182 (E6K, V11I, C38A, K53A, T63A, C76A, C127A, V153Y) (ligand)", "chain": "B1 chain with R103Q, V153Y"}, "B7": {"name": "IL-18 polypeptide C184 (E6R, V11I, C38A, K53A, T63A, C76A, C127A) (ligand)", "chain": "B1 chain with K6R, R103Q"}, "B8": {"name": "IL-18 polypeptide C140 (SEQ ID NO: 72; N-terminal 4xG, E6K, V11I, C38A, K53A, T63A, C76A, C127A) (ligand)", "chain": "GGGGYFGKLKSKLSIIRNLNDQVLFIDQGNRPLFEDMTDSDARDNAPRTIFIISMYADSQPRGMAVAISVKCEKISTLSAENKIISFKEMNPPDNIKDTKSDIIFFQRSVPGHDNKMQFESSSYEGYFLAAEKERDLFKLILKKEDELGDRSIMFTVQNED"}, "B9": {"name": "Avelumab/Bavencio (antibody, human IgG1, lambda)", "heavy": "not shown", "light": "QSALTQPASVSGSPGQSITISCTGTSSDVGGYNYVSWYQQHPGKAPKLMIYDVSNRPSGVSNRFSGSKSGNTASLTISGLQAEDEADYYCSSYTSSSTRVFGTGTKVTVLGQPKANPTVTLFPPSSEELQANKATLVCLISDFYPGAVTVAWKADGSPVKAGVETTKPSKQSNNKYAASSYLSLTPEQWKSHRSYSCQVTHEGSTVEKTVAPTECS", "notes": "also called MSB-0010718C; PF-06834635"}, "B10": {"name": "IL-18 polypeptide C141 (SEQ ID NO: 71; N-terminal G, E6K, V11I, C38A, K53A, T63A, C76A, C127A) (ligand)", "chain": "GYFGKLKSKLSIIRNLNDQVLFIDQGNRPLFEDMTDSDARDNAPRTIFIISMYADSQPRGMAVAISVKCEKISTLSAENKIISFKEMNPPDNIKDTKSDIIFFQRSVPGHDNKMQFESSSYEGYFLAAEKERDLFKLILKKEDELGDRSIMFTVQNED"}, "B11": {"name": "IL-18 polypeptide C192 (SEQ ID NO: 70; N-terminal G, E6K, V11I, C38A, M51G, K53A, T63A, C76A, C127A) (ligand)", "chain": "B10 chain with M52G"}}, "key": {"[1]": {"biological_target": "T1, IL-18R on HEK-Blue IL18R reporter cells (InvivoGen, #hkb-hmi118) (UniProt Q13478 19-541; O95256 20-599, limits assumed)", "T1 sequence (looked up) 1": "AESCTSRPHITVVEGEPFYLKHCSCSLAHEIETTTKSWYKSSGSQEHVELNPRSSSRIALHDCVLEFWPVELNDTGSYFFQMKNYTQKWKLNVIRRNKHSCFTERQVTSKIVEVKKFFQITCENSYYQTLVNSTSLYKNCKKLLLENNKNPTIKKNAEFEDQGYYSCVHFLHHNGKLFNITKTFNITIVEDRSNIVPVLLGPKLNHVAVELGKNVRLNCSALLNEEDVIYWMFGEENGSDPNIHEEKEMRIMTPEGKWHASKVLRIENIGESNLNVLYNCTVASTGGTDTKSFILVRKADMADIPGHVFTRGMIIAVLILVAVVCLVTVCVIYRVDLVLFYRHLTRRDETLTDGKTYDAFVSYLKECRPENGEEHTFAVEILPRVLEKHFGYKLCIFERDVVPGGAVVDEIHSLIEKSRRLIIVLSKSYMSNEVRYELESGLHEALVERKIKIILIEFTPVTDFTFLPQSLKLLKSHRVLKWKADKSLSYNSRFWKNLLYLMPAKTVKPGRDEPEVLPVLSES", "T1 sequence (looked up) 2": "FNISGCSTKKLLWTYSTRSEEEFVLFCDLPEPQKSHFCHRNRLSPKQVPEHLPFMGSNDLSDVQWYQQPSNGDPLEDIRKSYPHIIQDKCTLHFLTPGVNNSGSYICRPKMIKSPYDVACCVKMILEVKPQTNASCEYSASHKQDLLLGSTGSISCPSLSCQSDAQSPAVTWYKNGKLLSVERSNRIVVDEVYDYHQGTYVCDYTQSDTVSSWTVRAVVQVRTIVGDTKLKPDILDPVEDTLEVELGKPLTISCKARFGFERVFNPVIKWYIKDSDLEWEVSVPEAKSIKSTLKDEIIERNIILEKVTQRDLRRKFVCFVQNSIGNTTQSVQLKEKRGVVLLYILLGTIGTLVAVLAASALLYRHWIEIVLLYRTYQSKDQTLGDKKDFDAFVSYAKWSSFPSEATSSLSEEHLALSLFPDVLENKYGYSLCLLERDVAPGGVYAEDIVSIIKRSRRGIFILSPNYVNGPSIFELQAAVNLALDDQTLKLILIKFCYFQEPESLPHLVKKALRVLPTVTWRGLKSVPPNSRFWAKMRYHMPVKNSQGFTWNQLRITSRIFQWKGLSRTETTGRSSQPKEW", "experiment": "cell-based or functional assay"}, "[2]": {"biological_target": "T2, recombinant biotinylated human FcRn (human, UniProt P55899 24-297; P61769 21-119, limits assumed, biotinylated (site not stated))", "T2 construct": "also called human neonatal Fc receptor (FcRn); human Fc neonatal receptor", "experiment": "AlphaLISA competition at pH 6; competitor: human IgG on acceptor beads"}}, "note": "Numbering of substitutions follows the chain as printed. Numbers in names are those of the source.", "data": [{"binder": "B1", "values": [{"measurement": "EC50, HEK-Blue IL18R reporter assay", "setting": "[1]", "value": 0.26, "unit": "pM"}]}, {"binder": "B2", "values": [{"measurement": "EC50, HEK-Blue IL18R reporter assay", "setting": "[1]", "value": 0.1, "unit": "pM"}]}, {"binder": "B3", "values": [{"measurement": "EC50, HEK-Blue IL18R reporter assay", "setting": "[1]", "value": 0.1, "unit": "pM"}]}, {"binder": "B4", "values": [{"measurement": "EC50, HEK-Blue IL18R reporter assay", "setting": "[1]", "value": 0.4, "unit": "pM"}]}, {"binder": "B5", "values": [{"measurement": "EC50, HEK-Blue IL18R reporter assay", "setting": "[1]", "value": 0.02, "unit": "pM"}]}, {"binder": "B6", "values": [{"measurement": "EC50, HEK-Blue IL18R reporter assay", "setting": "[1]", "value": 0.08, "unit": "pM"}]}, {"binder": "B7", "values": [{"measurement": "EC50, HEK-Blue IL18R reporter assay", "setting": "[1]", "value": 0.04, "unit": "pM"}]}, {"binder": "B8", "values": [{"measurement": "EC50, HEK-Blue IL18R reporter assay", "setting": "[1]", "value": 2.5, "unit": "pM"}]}, {"binder": "B9", "values": [{"measurement": "Kd", "setting": "[2]", "value": 5360, "unit": "pM"}]}, {"binder": "B10", "values": [{"measurement": "EC50, HEK-Blue IL18R reporter assay", "setting": "[1]", "value": 1.68, "unit": "pM"}]}, {"binder": "B11", "values": [{"measurement": "EC50, HEK-Blue IL18R reporter assay", "setting": "[1]", "value": 14, "unit": "pM"}]}]}
